B1: emilin-1: emilin family extracellular matrix protein carrying an EMI domain, GenBank NP—008977; expressed from pCS2 vector by transfection (protein)
chain: ASYPPRGFSLYTGSSGALSPGGPQAQIAPRPASRHRNWCAYVVTRTVSCVLEDGVETYVKYQPCAWGQPQCPQSIMYRRFLRPRYRVAYKTVTDMEWRCCQGYGGDDCAESPAPALGPASSTPRPLARPARPNLSGSSAGSPLSGLGGEGPGESEKVQQLEEQVQSLTKELQGLRGVLQGLSGRLAEDVQRAVETAFNGRQQPADAAARPGVHETLNEIQHQLQLLDTRVSTHDQELGHLNNHHGGSSSSGGSRAPAPASAPPGPSEELLRQLEQRLQESCSVCLAGLDGFRRQQQEDRERLRAMEKLLASVEERQRHLAGLAVGRRPPQECCSPELGRRLAELERRLDVVAGSVTVLSGRRGTELGGAAGQGGHPPGYTSLASRLSRLEDRFNSTLGPSEEQEESWPGAPGGLSHWLPAARGRLEQLGGLLANVSGELGGRLDLLEEQVAGAMQACGQLCSGAPGEQDSQVSEILSALERRVLDSEGQLRLVGSGLHTVEAAGEARQATLEGLQEVVGRLQDRVDAQDETAAEFTLRLNLTAARLGQLEGLLQAHGDEGCGACGGVQEELGRLRDGVERCSCPLLPPRGPGAGPGVGGPSRGPLDGFSVFGGSSGSALQALQGELSEVILSFSSLNDSLNELQTTVEGQGADLADLGATKDRIISEINRLQQEATEHATESEERFRGLEEGQAQAGQCPSLEGRLGRLEGVCERLDTVAGGLQGLREGLSRHVAGLWAGLRETNTTSQMQAALLEKLVGGQAGLGRRLGALNSSLQLLEDRLHQLSLKDLTGPAGEAGPPGPPGLQGPPGPAGPPGSPGKDGQEGPIGPPGPQGEQGVEGAPAAPVPQVAFSAALSLPRSEPGTVPFDRVLLNDGGYYDPETGVFTAPLAGRYLLSAVLTGHRHEKVEAVLSRSNQGVARVDSGGYEPEGLENKPVAESQPSPGTLGVFSLILPLQAGDTVCVDLVMGQLAHSEEPLTIFSGALLYGDPELEHA

Legend:
[1] = target: T1, pro TGF-β1 processing (Homo sapiens, UniProt P01137); assay: Western blot of pro TGF-β1 conversion to LAP and mature TGF-β1 in transfected HEK293T cells; format: cell-based; details: for Intensity of the band corresponding to mature TGF-β1 / Precursor (pro TGF-β) band: HEK293T supernatant, anti-TGF-β1 Western-blot, emilin-1 cotransfected, peptide at 100 μM; for Intensity of the band corresponding to mature TGF-β1: FIG. 5A; for Precursor (pro TGF-β) band: FIG. 5A lanes 2 and 3
T1 construct: Flag; expressed in transfected cells; host or cells: HEK293T (A6); mouse embryo fibroblasts (A8)
T1 sequence (P01137 30-390): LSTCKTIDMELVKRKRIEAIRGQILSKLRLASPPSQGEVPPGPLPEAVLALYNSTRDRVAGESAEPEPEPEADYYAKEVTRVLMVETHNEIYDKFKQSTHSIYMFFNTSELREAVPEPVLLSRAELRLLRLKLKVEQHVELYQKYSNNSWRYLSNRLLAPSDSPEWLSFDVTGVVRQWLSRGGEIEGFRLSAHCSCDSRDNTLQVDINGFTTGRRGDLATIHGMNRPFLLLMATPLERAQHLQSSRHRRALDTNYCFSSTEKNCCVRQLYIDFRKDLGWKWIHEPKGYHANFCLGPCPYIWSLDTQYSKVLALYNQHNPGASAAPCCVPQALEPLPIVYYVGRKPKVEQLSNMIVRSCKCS
Source text: (§1) • The construct for emilin 1 expression was engineered in pCS2 vector (Rupp R. A. et al., 1994, Genes Dev 8, 1311-1323) (for a physical map of the vector, see the site faculty.washington.edu/rtmoon/pcs2+.html) as described (Zanetti M. et al., 2004, Mol Cell Biol 24, 638-650); the vector used for proTGF-β expression in MEF and HEK293T cells is pCDNA3.1 (Invitrogen). Vectors containing the coding sequence for human pro TGF-β are described in Young and Murphy-Ullrich, 2004 (Young and Murphy-Ullrich, 2004, J Biol Chem 279, 38032-38039). The human pro TGF-β cDNA sequence is reported in the data bank (NP_000660; protein 000651). • The vector for Furin/SPC 1 expression is pCDNA3.1 (Invitrogen) • p15 and CAGA 12 promoter fragments are described in Jonk L. J. et al., 1998, J Biol Chem 273, 21145-21152 […]. • Constructs containing Flag sequences are described in Young G. D and Murphy-Ullrich J E, 2004, J Biol Chem 279, 38032-38039. • Constructs containing the Flag epitope (e.g. Flag-EMI-domain-GPI) were prepared as described in Chubet R G et al. Biotechniques 1996; 20(1):136-141 and detected by anti-Flag antibody (Kodak Inc.). • Constructs containing the GPI anchor were prepared as described in the Manual “Current Protocols in Cell Biology” Howard R. Petty Wayne State University, Detroit, Mich.; Juan S. Bonifacino, Mary Dasso, Joe B. Harford, Jennifer Lippincott-Schwartz, and Kenneth M. Yamada (eds.), Copyright C 2003 John Wiley & Sons, Inc. (GPI-anchor). In the construct Flag-EMI domain-GPI, the Flag sequence was inserted at the N-terminus after the signal peptide, while the GPI-anchor sequence was placed at the COOH-terminal end. • The construct emilin 1-KDEL was obtained by inserting the KDEL coding sequence described by Munro S., and Pelham, H. R., 1987, Cell 48, 899-907 upstream the emilin 1 STOP codon. • The construct containing the type II TGF-β receptor with HA epitope was described in Wrana J. L. et al., 1994, Nature 370, 341-347. • supplier of the drugs used: SP600125 (Calbiochem), SB431542 (Tocris). • Purified recombinant LAP and TGF-β1 proteins were purchased from (R&D Systems)
To verify whether emilin or its EMI domain inhibit TGF-β or its precursor, HEK293T cells were cotransfected with plasmids driving the expression of pro TGF-β1 (fused to the FLAG-domain, even though the antibody used were directed at LAP and TGF-β proteins) and emilin-1 (or EMI-domain). […] The anti-Flag antibody used was obtained from Kodak Inc; for the preparation of Flag constructs, see Younjg and Murphy-Ullrich (Young and Murphy-Ullrich, 2004).
As reported in the summary scheme above FIG. 5A, HEK293T cells were transfected with the plasmid encoding pro TGF-β1 (lane 1) and cotransfected with emilin-1 (lane 3) or treated with decanoyl-RVKR-CMK peptide (Decanoyl-Arg-Val-Lys-Arg-chloromethylketone, Alexis Corporation, Lausen, Switzerland) (lane 2) at a concentration of 100 μM. The peptide is an irreversible and competitive inhibitor of furin proprotein convertase and of other SPC family members (Proprotein Convertase); in addition, it inhibits pro-MMP2 dependent furin activation. The supernatant was then loaded on SDS-PAGE and detected by Western-blot with anti-TGF-β1 antibody. […] An increase of the precursor band in lanes 2 and 3 is […] to the decrease of TGF-β. Therefore it can be concluded that this assay detects an effect of emilin-1 on TGF-β1 processing that is similar to the effect of Furin inhibitors.

[2] = test system: pro TGF-β1; assay: Western blot of culture medium of MEF (-/- or +/+) transfected with Flag-proTGF-β1; format: cell-based, mouse; details: anti-Flag / anti-LAP, FIG. 5C
Protocol: In a subsequent experiment, Mouse Embryo Fibroblasts (MEF) derived from ko (−/−) or wild type (+/+) mice were transfected with a plasmid encoding Flag-proTGF-β1; the Furin inhibitor decanoyl-RVKR-CMK was added to the indicated samples. The culture medium was then subjected to western blotting with anti-Flag (FIG. 5C, upper inset) or anti-LAP (middle inset) antibody. […] To control the expression levels, western blot (in the lower inset) with an anti-β gal antibody was developed instead.

[3] = test system: mature TGF-β1; assay: CAGA12-lux luciferase reporter in HEK293T cells treated with recombinant TGF-β1; format: cell-based; details: 5 ng/ml recombinant TGF-β1, expression vector 500 ng, FIG. 2B
Protocol: (§2) To verify how emilin or the EMI domain can contrast TGF-β1 activity independently from receptor binding, HEK293T cells were transfected with a construct coding luciferase placed under control of a TGF-β activated promoter: CAGA12-lux (Jonk et al., 1998) alone or in combination with a emilin1 expression vector (500 ng) as shown in FIG. 2B. After transfection, cells were treated (black bar) or not treated (white bar) with 5 ng/ml recombinant TGF-1 (lanes 1 and 2). Column bars from 3 to 6 report luciferase expression values in experiments with cells co-transfected with the expression vector for emilin1 (or EMI-domain or emilin1ΔEMI) alone (white bars) or in combination with the vector encoding pro TGF-β1 (black bars). Values show the mean±st. dev.

[4] = test system: pro TGF-β1; assay: CAGA12-lux luciferase reporter in HEK293T cells co-transfected with pro TGF-β1 vector; format: cell-based, human
Source text: as §1, §2
As further validation of the above observations, HEK293T cells were cotransfected with expression plasmids carrying the cDNAs shown in the summary scheme above the figure, along with CAGA12-lux and CMV-lacZ constructs, and luciferase expression levels were measured.

[5] = target: T2, pro TGF-β (Homo sapiens, UniProt P01137); assay: Co-immunoprecipitation / Western blot of EMI domain or emilin1 with pro TGF-β in HEK293T cells; format: binding; details: HEK293T cell extracts or culture medium; anti-Flag / anti-LAP IP; FIG. 4A-4C
T2 construct: expressed in transfected cells; host or cells: HEK293T
T2 sequence (P01137 30-390): as above
Source text: • The construct for emilin 1 expression was engineered in pCS2 vector (Rupp R. A. et al., 1994, Genes Dev 8, 1311-1323) (for a physical map of the vector, see the site faculty.washington.edu/rtmoon/pcs2+.html) as described (Zanetti M. et al., 2004, Mol Cell Biol 24, 638-650); the vector used for proTGF-β expression in MEF and HEK293T cells is pCDNA3.1 (Invitrogen). Vectors containing the coding sequence for human pro TGF-β are described in Young and Murphy-Ullrich, 2004 (Young and Murphy-Ullrich, 2004, J Biol Chem 279, 38032-38039). […]

[6] = test system: pro TGF-β processing; assay: Cell-mixing experiment, responder (CAGA12-lux) and stimulator (proTGF-β) HEK293T cells; format: cell-based; details: emilin 1 cotransfected in S cells or only in R cells; FIG. 6A
Protocol: To determine where emilin and pro TGF-β interact (whether intracellularly or extracellularly), two types of HEK293T cells, responder (R) and stimulator (S), were prepared by transfecting the CAGA12-lux plasmid in the former and of the proTGF-β coding plasmid in the latter cells. Therefore, R cells respond to TGF-β by activating the luciferase reporter gene, while S cells produce TGF-β and can stimulate the former cells only if TGF-β is secreted. To determine where emilin-1 blocks TGF-β processing, R or S cells were cotransfected with the emilin 1 coding plasmid, and this transfection is indicated with the initial +E under the corresponding column bar in FIG. 6A.
To be able to compare the results obtained under the various conditions, all cells were cotransfected also with the CMV-lacZ vector. Mock refers to cells transfected with CMV-lacZ plasmid alone. […] Therefore, the inhibition of pro TGF-β processing by emilin 1 occurs in the extracellular compartment.

| Molecule | Intensity of the band corresponding to mature TGF-β1 [1] | Precursor (pro TGF-β) band [1] | pro TGF-β1 levels in culture medium [2] | Effect on luciferase expression induced by mature TGF-β [3] | Luciferase expression stimulated by transfected pro TGF-β ([4]; CAGA12-lux and CMV-lacZ, FIG. 6C) | Effect on luciferase expression induced by pro TGF-β1 ([4]; CAGA12-lux, co-transfection with pro TGF-β1 vector, FIG. 2B, 2C) | Interaction with pro TGF-β (co-immunoprecipitation) [5] | Conversion of pro TGF-β1 to LAP and mature TGF-β1 (band intensity) ([1]; HEK293T cotransfected, cell extracts anti-LAP, supernatants anti-TGF-β1, FIG. 4D) | Activation of CAGA12-lux reporter on mixing R and S cells [6] |
| --- | --- | --- | --- | --- | --- | --- | --- | --- | --- |
| Decanoyl-Arg-Val-Lys-Arg-chloromethylketone [decanoyl-RVKR-CMK, reference compound] | decreases | increase | results in increased pro TGF-β1 levels |  |  |  |  |  |  |
| B1 | decreases | increase |  | does not antagonize mature TGF-β | inhibits the stimulating action of transfected pro TGF-β | inhibits pro TGF-β | co-precipitates | inhibit the conversion of pro TGF-β1 | inhibits activation of the reporter construct |

Reference: patent publication US20090036382A1, “TGF-Beta Modulators and Use Thereof” (Universita' Degli Studi Di Padova, priority 2006, published 2009)
